Experimental data taken from the supplement of paper PMC10065799, “High-throughput profiling of sequence recognition by tyrosine kinases and SH2 domains using bacterial peptide display” (eLife, 2023).

How the values were obtained:
AncSZ = test: phosphorylation enrichment, bacterial display (enrichment ratio); higher = better substrate or ligand; peptides without Tyr show the background
EPHB1 = EPHB1 (UniProt P54762); test: as above
EPHB2 = EPHB2 (UniProt P29323); test: as above
FGFR1 = FGFR1 (UniProt P11362); test: as above
FGFR3 = FGFR3 (UniProt P22607); test: as above
Chain of FGFR3 (P22607 whole entry, looked up): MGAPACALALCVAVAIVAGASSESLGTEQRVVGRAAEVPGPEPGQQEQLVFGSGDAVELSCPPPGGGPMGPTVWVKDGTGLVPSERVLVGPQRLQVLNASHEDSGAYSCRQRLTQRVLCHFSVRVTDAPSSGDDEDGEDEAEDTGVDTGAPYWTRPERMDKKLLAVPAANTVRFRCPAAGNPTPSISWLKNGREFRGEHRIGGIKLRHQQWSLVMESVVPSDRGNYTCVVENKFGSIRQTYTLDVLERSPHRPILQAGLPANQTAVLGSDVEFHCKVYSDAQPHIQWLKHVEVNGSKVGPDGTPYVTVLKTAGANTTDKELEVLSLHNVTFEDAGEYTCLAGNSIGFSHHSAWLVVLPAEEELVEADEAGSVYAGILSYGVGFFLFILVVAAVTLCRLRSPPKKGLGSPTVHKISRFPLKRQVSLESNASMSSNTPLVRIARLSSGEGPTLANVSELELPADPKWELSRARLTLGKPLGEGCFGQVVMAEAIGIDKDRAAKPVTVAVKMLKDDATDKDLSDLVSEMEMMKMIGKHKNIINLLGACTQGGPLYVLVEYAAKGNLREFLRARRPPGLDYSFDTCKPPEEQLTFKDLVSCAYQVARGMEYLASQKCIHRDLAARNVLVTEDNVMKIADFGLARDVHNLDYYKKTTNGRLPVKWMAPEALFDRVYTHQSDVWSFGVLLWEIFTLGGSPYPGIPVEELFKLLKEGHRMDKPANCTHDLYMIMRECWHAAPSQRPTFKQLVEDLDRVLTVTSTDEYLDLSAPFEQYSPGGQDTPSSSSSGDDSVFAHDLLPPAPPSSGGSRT

Fer (mouse) = test: as above
Fes = Fes (UniProt P07332); test: as above
Fyn = Fyn (UniProt P06241); test: as above
Chain of Fyn (P06241 whole entry, looked up): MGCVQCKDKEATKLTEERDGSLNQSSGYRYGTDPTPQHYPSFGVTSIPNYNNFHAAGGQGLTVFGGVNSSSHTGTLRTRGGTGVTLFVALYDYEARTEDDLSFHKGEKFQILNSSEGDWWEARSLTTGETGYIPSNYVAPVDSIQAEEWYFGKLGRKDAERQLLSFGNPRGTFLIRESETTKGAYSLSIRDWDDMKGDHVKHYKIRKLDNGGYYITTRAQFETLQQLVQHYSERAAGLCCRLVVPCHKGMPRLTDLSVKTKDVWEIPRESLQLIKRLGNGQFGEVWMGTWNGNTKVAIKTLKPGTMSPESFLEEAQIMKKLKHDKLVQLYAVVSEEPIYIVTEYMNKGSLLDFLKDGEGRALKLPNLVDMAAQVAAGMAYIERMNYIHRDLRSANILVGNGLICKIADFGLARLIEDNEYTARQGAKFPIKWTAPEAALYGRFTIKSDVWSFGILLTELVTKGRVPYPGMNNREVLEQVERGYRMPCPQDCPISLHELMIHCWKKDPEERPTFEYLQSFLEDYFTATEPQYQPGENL

Hck = Hck (UniProt P08631); test: as above
Chain of Hck (P08631 whole entry, looked up): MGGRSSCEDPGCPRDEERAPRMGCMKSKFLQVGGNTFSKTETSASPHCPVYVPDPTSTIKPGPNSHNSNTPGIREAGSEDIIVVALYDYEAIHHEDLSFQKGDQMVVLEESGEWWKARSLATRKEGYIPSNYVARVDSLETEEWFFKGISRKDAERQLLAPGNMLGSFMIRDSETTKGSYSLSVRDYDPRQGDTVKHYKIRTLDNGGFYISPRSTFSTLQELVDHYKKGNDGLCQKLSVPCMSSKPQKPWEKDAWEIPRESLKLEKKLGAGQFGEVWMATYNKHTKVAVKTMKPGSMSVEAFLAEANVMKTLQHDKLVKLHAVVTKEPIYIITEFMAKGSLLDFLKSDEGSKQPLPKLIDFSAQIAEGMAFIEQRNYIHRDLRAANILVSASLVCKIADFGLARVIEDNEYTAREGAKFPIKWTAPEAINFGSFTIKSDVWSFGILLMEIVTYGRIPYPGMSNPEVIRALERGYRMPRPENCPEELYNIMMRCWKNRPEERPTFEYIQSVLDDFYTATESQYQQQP

Jak2 = Jak2 (UniProt O60674); test: as above
Chain of Jak2 (O60674 whole entry, looked up): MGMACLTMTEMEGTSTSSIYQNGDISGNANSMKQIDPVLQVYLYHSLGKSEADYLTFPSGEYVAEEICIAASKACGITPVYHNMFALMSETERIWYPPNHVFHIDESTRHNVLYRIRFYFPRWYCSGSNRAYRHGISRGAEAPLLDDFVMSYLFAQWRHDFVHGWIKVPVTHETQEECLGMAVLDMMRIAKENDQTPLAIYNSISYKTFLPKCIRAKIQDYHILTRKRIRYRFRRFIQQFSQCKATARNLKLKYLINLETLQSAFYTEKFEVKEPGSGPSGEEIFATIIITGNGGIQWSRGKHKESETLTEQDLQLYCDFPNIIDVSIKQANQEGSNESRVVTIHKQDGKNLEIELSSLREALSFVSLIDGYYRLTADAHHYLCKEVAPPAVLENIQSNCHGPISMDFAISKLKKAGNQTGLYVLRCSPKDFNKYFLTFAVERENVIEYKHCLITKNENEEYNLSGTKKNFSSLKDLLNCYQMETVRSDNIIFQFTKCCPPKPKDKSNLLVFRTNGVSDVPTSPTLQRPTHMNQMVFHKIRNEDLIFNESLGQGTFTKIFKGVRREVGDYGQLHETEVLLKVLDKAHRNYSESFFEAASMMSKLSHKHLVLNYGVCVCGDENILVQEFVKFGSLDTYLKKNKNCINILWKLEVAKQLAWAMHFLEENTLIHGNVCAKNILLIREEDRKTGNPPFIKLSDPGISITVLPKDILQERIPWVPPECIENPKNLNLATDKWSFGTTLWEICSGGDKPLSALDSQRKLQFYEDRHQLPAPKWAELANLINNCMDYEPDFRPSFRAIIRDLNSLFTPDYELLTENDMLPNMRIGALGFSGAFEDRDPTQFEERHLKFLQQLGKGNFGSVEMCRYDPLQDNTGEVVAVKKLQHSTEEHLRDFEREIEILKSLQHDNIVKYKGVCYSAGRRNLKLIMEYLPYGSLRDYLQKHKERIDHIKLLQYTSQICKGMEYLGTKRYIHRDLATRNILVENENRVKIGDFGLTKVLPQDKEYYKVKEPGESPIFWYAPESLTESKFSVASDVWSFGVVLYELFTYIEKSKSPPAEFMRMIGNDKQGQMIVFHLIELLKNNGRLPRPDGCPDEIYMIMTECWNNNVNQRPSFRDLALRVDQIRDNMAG

MERTK = MERTK (UniProt Q12866); test: as above
c-Abl (mouse) = test: as above
c-Src = test: as above
Grb2 SH2 = Grb2 SH2 (UniProt P62993); test: SH2 binding enrichment of the phosphorylated peptide, bacterial display (enrichment ratio); higher = better substrate or ligand; peptides without Tyr show the background
SHP2-C SH2 = test: as above
c-Src SH2 = test: as above
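Throughout, for SH2 binding enrichment of the phosphorylated peptide, bacterial display: peptide library displayed on the E. coli surface as eCPX fusions, selected cells deep-sequenced, score is each peptide's frequency after selection divided by its frequency in the input.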
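Throughout, for phosphorylation enrichment, bacterial display: 11-residue human phosphosite peptides and single-mutation variants displayed on the E. coli surface, counted by deep sequencing, each peptide's frequency after selection divided by its frequency in the unselected input library; frequency after pTyr selection over input frequency; kinase dosed for 20-30% of maximal phosphorylation in three min.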

Chain of EPHB1 (P54762 whole entry, looked up): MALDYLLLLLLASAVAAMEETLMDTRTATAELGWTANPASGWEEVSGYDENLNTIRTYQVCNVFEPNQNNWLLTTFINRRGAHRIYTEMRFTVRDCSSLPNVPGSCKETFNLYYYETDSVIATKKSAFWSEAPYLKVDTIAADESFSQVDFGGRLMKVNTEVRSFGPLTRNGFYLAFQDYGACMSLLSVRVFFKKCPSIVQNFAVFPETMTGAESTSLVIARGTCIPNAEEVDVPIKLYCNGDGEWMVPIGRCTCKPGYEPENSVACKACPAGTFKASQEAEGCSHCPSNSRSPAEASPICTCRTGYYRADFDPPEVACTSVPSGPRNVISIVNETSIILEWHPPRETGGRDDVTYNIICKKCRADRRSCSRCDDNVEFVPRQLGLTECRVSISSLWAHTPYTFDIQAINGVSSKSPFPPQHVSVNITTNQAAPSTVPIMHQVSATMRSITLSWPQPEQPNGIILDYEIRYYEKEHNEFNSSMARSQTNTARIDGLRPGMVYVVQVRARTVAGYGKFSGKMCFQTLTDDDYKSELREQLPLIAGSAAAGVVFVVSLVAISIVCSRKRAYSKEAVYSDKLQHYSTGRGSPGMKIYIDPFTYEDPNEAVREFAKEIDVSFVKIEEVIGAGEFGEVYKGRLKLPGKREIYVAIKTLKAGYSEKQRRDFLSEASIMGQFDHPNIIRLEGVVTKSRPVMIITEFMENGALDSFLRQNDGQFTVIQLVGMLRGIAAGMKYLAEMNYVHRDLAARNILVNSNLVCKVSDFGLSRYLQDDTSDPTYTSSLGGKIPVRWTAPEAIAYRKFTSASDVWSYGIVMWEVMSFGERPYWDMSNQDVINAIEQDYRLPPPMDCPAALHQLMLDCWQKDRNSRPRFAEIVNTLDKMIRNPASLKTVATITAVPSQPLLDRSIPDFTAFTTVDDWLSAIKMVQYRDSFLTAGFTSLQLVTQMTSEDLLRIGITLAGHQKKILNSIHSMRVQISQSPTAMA
Chain of EPHB2 (P29323 whole entry, looked up): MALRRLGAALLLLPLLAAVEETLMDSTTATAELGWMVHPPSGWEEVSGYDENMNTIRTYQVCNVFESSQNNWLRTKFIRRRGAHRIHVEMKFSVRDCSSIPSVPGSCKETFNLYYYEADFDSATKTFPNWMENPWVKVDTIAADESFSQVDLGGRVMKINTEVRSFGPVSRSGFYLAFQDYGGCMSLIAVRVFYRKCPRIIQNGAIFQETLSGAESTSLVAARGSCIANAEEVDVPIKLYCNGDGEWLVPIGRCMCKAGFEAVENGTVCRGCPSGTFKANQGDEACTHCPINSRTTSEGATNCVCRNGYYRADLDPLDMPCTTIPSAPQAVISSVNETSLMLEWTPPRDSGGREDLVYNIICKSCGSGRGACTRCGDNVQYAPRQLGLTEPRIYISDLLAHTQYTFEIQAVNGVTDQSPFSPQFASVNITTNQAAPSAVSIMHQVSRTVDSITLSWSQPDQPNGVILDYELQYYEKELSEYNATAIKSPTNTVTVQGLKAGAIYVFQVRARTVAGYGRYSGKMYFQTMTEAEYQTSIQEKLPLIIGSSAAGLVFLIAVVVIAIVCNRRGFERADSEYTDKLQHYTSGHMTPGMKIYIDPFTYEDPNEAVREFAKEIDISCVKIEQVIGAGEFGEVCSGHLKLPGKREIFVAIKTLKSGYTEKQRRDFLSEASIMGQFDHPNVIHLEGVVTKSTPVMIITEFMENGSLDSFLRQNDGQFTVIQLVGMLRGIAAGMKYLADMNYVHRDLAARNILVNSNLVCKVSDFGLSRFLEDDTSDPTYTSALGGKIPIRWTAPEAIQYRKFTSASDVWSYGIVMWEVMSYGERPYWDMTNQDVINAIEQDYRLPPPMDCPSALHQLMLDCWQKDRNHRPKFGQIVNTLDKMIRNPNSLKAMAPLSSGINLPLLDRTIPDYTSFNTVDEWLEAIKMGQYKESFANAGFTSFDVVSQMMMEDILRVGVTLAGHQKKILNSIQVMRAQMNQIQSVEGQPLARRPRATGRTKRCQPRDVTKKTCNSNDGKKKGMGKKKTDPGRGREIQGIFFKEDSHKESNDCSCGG

Row | Sequence | phosphorylation enrichment (AncSZ) | phosphorylation enrichment (EPHB1) | phosphorylation enrichment (EPHB2) | phosphorylation enrichment (FGFR1) | phosphorylation enrichment (FGFR3) | phosphorylation enrichment (Fer (mouse)) | phosphorylation enrichment (Fes) | phosphorylation enrichment (Fyn) | phosphorylation enrichment (Hck) | phosphorylation enrichment (Jak2) | phosphorylation enrichment (MERTK) | phosphorylation enrichment (c-Abl (mouse)) | phosphorylation enrichment (c-Src) | SH2 binding enrichment (Grb2 SH2) | SH2 binding enrichment (SHP2-C SH2) | SH2 binding enrichment (c-Src SH2)
1 | KSLFHHRQYSA [CPS1_Y1491_Y1491H] | 0.573 | 1.04 | 0.491 | 0.563 | 0.412 | 0.439 | 0.547 | 0.519 | 0.488 | 0.555 | 0.472 | 0.504 | 0.478 | 0.618 | 0.613 | 0.341
2 | KSMSVYCTPNK [ATP2A2_Y497] | 1.13 | 0.696 | 0.702 | 0.473 | 0.632 | 0.509 | 0.94 | 0.699 | 1 | 0.581 | 0.653 | 1.38 | 0.455 | 1.08 | 0.686 | 0.948
3 | KWTVDYLGQVG [TYW5_Y48_S50G] | 0.913 | 0.515 | 0.444 | 0.531 | 0.602 | 0.405 | 0.774 | 0.46 | 0.487 | 0.845 | 0.336 | 0.621 | 0.392 | 1.04 | 0.918 | 0.494
4 | KYVVVYFRETD [IL17RB_Y447_I451T] | 1.36 | 0.757 | 0.554 | 0.459 | 0.708 | 0.564 | 1.34 | 0.43 | 0.579 | 1.27 | 0.445 | 0.762 | 0.491 | 2.28 | 6.88 | 1.7
5 | LADKPYTFEFF [FXN_Y118_D122Y_YF] | 1.78 | 0.764 | 0.683 | 0.649 | 0.952 | 1.25 | 1.82 | 1.47 | 0.644 | 1.58 | 1.22 | 1.19 | 2.87 | 0.742 | 0.719 | 0.675
6 | LDPDSYNKFEN [FOXC1_Y159_M161K] | 1.54 | 0.758 | 0.656 | 0.765 | 0.97 | 0.483 | 1.69 | 0.665 | 0.698 | 1.52 | 0.802 | 1.25 | 1.02 | 0.681 | 0.838 | 0.409
7 | LDTFIYDAAVL [GRIN2A_Y730_A727T] | 1.97 | 1.68 | 2.05 | 0.827 | 0.991 | 16.9 | 1.65 | 7.61 | 8.1 | 1.4 | 2.94 | 7.38 | 7.94 | 0.785 | 0.921 | 0.767
8 | LEAVSYSSPYA [RNLS_Y190_R193P] | 1.81 | 0.818 | 0.936 | 0.697 | 0.987 | 0.714 | 1.03 | 0.864 | 1.07 | 1.51 | 0.627 | 2.02 | 1.12 | 0.826 | 1.84 | 2.86
9 | LENQTYFKSFE [AKAP9_Y2482] | 1.59 | 1.24 | 1.24 | 0.956 | 0.903 | 0.67 | 1.33 | 1.08 | 1.22 | 1.13 | 0.81 | 0.872 | 0.579 | 0.978 | 0.518 | 0.569
10 | LENSTYQFIRV [CRB1_Y760_YF] | 1.36 | 5.79 | 1.75 | 5.63 | 3.21 | 15.8 | 1.52 | 2.87 | 7.9 | 0.946 | 4.96 | 1.18 | 3.85 | 0.607 | 0.622 | 0.546
11 | LENSTYQYICV [CRB1_Y760_R764C] | 3.88 | 11.9 | 8.2 | 14.1 | 8.35 | 15.4 | 2.41 | 4.96 | 5.89 | 2.13 | 6.83 | 1.61 | 3.5 | 0.715 | 0.526 | 0.522
12 | LERFIYNREEL [HLA-DPB1_Y59_F64L_YF] | 1.5 | 0.698 | 0.734 | 0.666 | 0.75 | 0.669 | 1.3 | 1.19 | 1.5 | 1.54 | 0.694 | 1.11 | 2.42 | 1.2 | 0.85 | 0.703
13 | LERFIYNRQEF [HLA-DPB1_Y59_E62Q_YF] | 0.766 | 0.436 | 0.551 | 0.491 | 0.532 | 0.427 | 0.87 | 0.551 | 0.77 | 0.629 | 0.357 | 0.464 | 0.859 | 1.03 | 0.783 | 0.566
14 | LERYIYNPEEF [HLA-DPB1_Y59_R61P] | 1.48 | 0.783 | 0.965 | 0.875 | 0.902 | 0.85 | 1.74 | 2.16 | 1.56 | 2.66 | 0.682 | 1.32 | 3.71 | 0.866 | 0.851 | 0.677
15 | LESETYRRLLD [KRT12_Y429_I426S] | 1.44 | 0.75 | 0.836 | 0.784 | 1.02 | 0.708 | 1.66 | 0.684 | 0.697 | 1.07 | 0.664 | 0.778 | 0.517 | 0.915 | 0.911 | 0.429
16 | LESILYESSVV [TRPV4_Y91_T89I] | 1.65 | 0.607 | 0.719 | 0.725 | 0.825 | 7.52 | 1.39 | 1.22 | 1.65 | 1.23 | 0.678 | 1.01 | 1.14 | 0.86 | 0.732 | 0.613
17 | LFDPDFMKVIL [CYP4A22_Y104_Y104F_YF] | 2.44 | 1.63 | 0.908 | 1.15 | 1.86 | 0.999 | 2.6 | 0.899 | 1.12 | 2.74 | 1.06 | 2.1 | 1.23 | 1.06 | 0.543 | 0.463
18 | LFRFGYANTSE [SI_Y1233_C1229Y_YF] | 0.696 | 0.378 | 0.585 | 0.619 | 0.497 | 0.433 | 0.937 | 0.411 | 0.51 | 0.807 | 0.315 | 0.847 | 0.376 | 1.48 | 0.95 | 0.936
19 | LFSINYLHFGE [KDM4C_Y201_YF] | 1.35 | 1.3 | 0.661 | 0.902 | 0.899 | 0.822 | 1.6 | 0.624 | 0.65 | 1.29 | 0.634 | 0.953 | 0.528 | 1.38 | 2.78 | 1.27
20 | LFVDVYGPSVP [NUBPL_Y109_D105Y_YF] | 1.23 | 0.576 | 0.545 | 0.482 | 0.709 | 0.748 | 1.34 | 1.16 | 1.5 | 1.17 | 0.355 | 0.717 | 1.47 | 0.921 | 0.684 | 0.42
21 | LGKLIYPVGFW [NTHL1_Y177] | 1.6 | 0.999 | 1.02 | 0.816 | 1.13 | 0.557 | 1.87 | 0.752 | 0.746 | 1.67 | 0.634 | 1.27 | 1.35 | 1.53 | 1.55 | 1.13
22 | LGRGKSSEVFE [CSNK2A1_Y50_Y50S] | 0.923 | 0.341 | 0.605 | 0.438 | 0.661 | 0.593 | 1.01 | 0.646 | 0.517 | 0.996 | 0.639 | 0.835 | 0.653 | 0.65 | 0.547 | 0.337
23 | LGRGKYSEVFE [CSNK2A1_Y50] | 1.01 | 0.514 | 0.798 | 0.685 | 0.805 | 0.478 | 1.19 | 1.19 | 0.768 | 0.929 | 0.753 | 0.924 | 0.704 | 0.739 | 0.701 | 1.44
24 | LGRTRYQHVTG [MIPEP_Y510] | 0.694 | 0.439 | 0.393 | 0.477 | 0.428 | 0.377 | 0.723 | 0.488 | 0.309 | 0.559 | 0.499 | 0.564 | 0.445 | 0.881 | 0.767 | 0.748
25 | LHAAAYQNALA [UQCRC2_Y182_R183Q] | 1.01 | 0.433 | 0.423 | 0.512 | 0.476 | 0.427 | 0.715 | 0.474 | 0.45 | 0.646 | 0.4 | 0.495 | 0.393 | 8.54 | 0.611 | 0.837
26 | LHRAHYDLHHT [AHSG_Y314_R317H] | 0.836 | 0.69 | 0.674 | 0.511 | 0.857 | 1.36 | 1.01 | 0.637 | 0.553 | 0.646 | 0.496 | 0.781 | 0.505 | 1.95 | 1.92 | 1.86
27 | LHVGFYESDVM [A2M_Y708_R704H] | 1.18 | 1.41 | 1.14 | 0.889 | 1.21 | 1.9 | 1.58 | 0.691 | 0.743 | 1.34 | 1.15 | 0.761 | 0.676 | 0.95 | 0.721 | 4.23
28 | LIGRRCDDPEV [HSPA9_Y128_Y128C] | 1.76 | 0.782 | 0.623 | 0.697 | 1.03 | 0.666 | 1.51 | 1.12 | 0.575 | 1.41 | 0.582 | 1 | 0.722 | 0.997 | 0.557 | 0.431
29 | LKRIAYFLCLR [LGI1_Y21_L26R] | 0.997 | 0.372 | 0.413 | 0.365 | 0.601 | 0.435 | 1.06 | 0.399 | 0.37 | 0.949 | 0.359 | 0.708 | 0.341 | 0.841 | 0.652 | 0.583
